Patent US20220403424A1 (UNIVERSITY OF PUERTO RICO, published 2022)

B1: FabA-Linker-FabZ fused heterodimer (enzyme)
chain: MVDKRESYTKEDLLASGRGELFGAKGPQLPAPNMLMMDRVVKMTETGGNFDKGYVEAELDINPDLWFFGCHFIGDPVMPGCLGLDAMWQLVGFYLGWLGGEGKGRALGVGEVKFTGQVLPTAKKVTYRIHFKRIVNRRLIMGLADGEVLVDGRLIYTASDLKVGLFQDTSAFSTQNVAIQTAAPVASASNGLDAAQVQGTMTTNTHTLQIEEILELLPHRFPFLLVDRVLDFEEGRFLRAVKNVSVNEPFFQGHFPGKPIFPGVLILEAMAQATGILAFKSVGKLEPGELYYFAGIDEARFKRPVVPGDQMIMEVTFEKTRRGLTRFKGVALVDGKVVCEATMMCARSREA
notes: Single-chain fusion, His-tagged, purified from E. coli; By SEC and SAXS the chain self-associates into a higher oligomer of about 400 kDa; The number of copies is not settled: 'possibly decamers', and nonamers in computational models; also called FabA-FabZ; FabA-peptide linker-FabZ; not shown: His tag from vector pET-200/TOPO
B2: FabZ-Linker-FabZ fused homodimer (enzyme)
chain: MTTNTHTLQIEEILELLPHRFPFLLVDRVLDFEEGRFLRAVKNVSVNEPFFQGHFPGKPIFPGVLILEAMAQATGILAFKSVGKLEPGELYYFAGIDEARFKRPVVPGDQMIMEVTFEKTRRGLTRFKGVALVDGKVVCEATMMCARSREASTQNVAIQTAAPVASASNGLDAAQVQGTMTTNTHTLQIEEILELLPHRFPFLLVDRVLDFEEGRFLRAVKNVSVNEPFFQGHFPGKPIFPGVLILEAMAQATGILAFKSVGKLEPGELYYFAGIDEARFKRPVVPGDQMIMEVTFEKTRRGLTRFKGVALVDGKVVCEATMMCARSREA
notes: Single-chain fusion; By SEC it elutes as a trimer of fused dimers, so three copies of this chain, at about 116 kDa; also called FabZ-FabZ; FabZFabZ; not shown: His tag from vector pET-200/TOPO

Target: the molecule itself
Assay: size exclusion chromatography, self-association

Protein	binding result
B1	binds
B2	binds
